Measured values as given in patent publication US12072338B2, “Pharmaceutical peptides for the treatment of inflammatory diseases” (PROTAGONISTS LTD., priority 2007, dated 2024).
“Also recorded” adds a separate entry of the source. Read-outs that look alike come from different tables or passages of the source. Ends that are not written are not given here.

Experiments:
[1] = tested on: SDF1; experiment: Micro-array analysis of chemokine binding peptides: SDF1 (isoform not given)
Protocol: (§1) (1) Printing: Chemokine (CK) solution (in water) was serially diluted with Print Reagent (GenTel BioSurfaces USA) to final concentrations of 50 μg and 25 μg/ml. BSA/BSA-Biotin control solutions (in water) were diluted with Print Reagent to 100 μg/ml. Amplified stock of M13 phage control (M13KEgIII Cloning Vector, New England Biolabs, Cat.No.E8101S) was stored in Tris Buffered Saline (TBS; pH7.5, 4° C.) and diluted with Print Reagent to the working titre (10^8 pfu/μl). An automated spotting robot (16 pin print tool, 0.4 mm head; BioRobotics, UK) was used to print the CK/BSA control/M13 control, 5 repeats per sample (CK 25 μg/ml and 50 μg/ml; BSA 100 μg/ml; M13 20 μl), on PATH Protein Microarray Slides (GenTel, Prod.No. 2-1005/-1025) at […], and 50-70% relative humidity. Printed micro-array slides were stored at Room Temperature (RT) or 4° C. for at least 24 h before use.
(§2) (2) Blocking: Block Buffer (500 μl/partition; PATHblock, GenTel, Prod.No. 2-1014) was applied to the slide for 1 hour at room temp (RT). After removal of Block Buffer, the slide was air dried for 25 minutes;
(§3) (3) Phage Presented Peptide Binding: Amplified recombinant phage stock was stored in TBS and diluted with Wash Buffer to working titer (10^7 pfu/μl). Recombinant phage suspension (300 μl) was applied per partition and incubated at RT for 1 hour with gentle agitation.
(§4) (4) First Washing: The slides were washed twice with Wash Buffer 300 μl/partition).
(§5) (5) Primary Antibody (Ab) Labeling: The slides were incubated with the Primary Ab (1 mg/ml diluted ×2500 (Wash Reagent), 300 μl; Mouse Anti-M13 monoclonal Ab; Amersham Biosciences, UK; Product Code 27-9420-01) for 45 minutes at RT.
(§6) (6) Second Washing: The slides were washed twice with Wash Buffer (300 μl/partition).
(§7) (7) Secondary Ab Labeling: The slides were incubated with Secondary Ab (1.5 mg/ml diluted ×5000 (Wash Reagent), 300 μl; Cy3-conjugated AffiniPure Goat Anti-Mouse IgG; Jackson ImmunoReserch Labs, USA; Product Code 115-165-062).
(§8) (8) Third Washing: The slides were washed twice with Wash Buffer (300 μl/partition).
(§9) (9) Rinse: the slides were rinsed twice with Rinse Buffer (PATHrinse, GenTel, Prod.No. 2-1018) then dried well.
(§10) (10) Scanning: The peptide-bound, labeled slide was scanned (Laser Intensity 80%, Gain 80%, Resolution 10 μm) with a ScanArray Life Scanner (Packard BioChip Technologies, USA).
(§11) (11) Analysis: Quantitative analysis of micro-array was performed by the SpotReader program of Niles Scientific (USA) and presented as Relative Fluorescence (RF) as a function of CK concentration. Micro-array readout (Cy3 fluorescence) was quantified to determine the relative binding affinities of a CBP for the CKs and by inference, the specificity of the CBP for binding to a CK.

[2] = molecular target: T1, SDF1-β (Homo sapiens, UniProt P48061); experiment: Micro-array analysis of chemokine binding peptides: SDF1-β
T1 construct: purchased 300-28b
Outline: (§12)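 Relative Cy3 fluorescence reflects how much recombinant phage (10^7 pfu/μl, 1 h, RT) bound chemokine printed at 25 or 50 μg/ml. Detection used anti-M13 monoclonal followed by Cy3 anti-mouse IgG.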

[3] = molecular target: T2, Fractalkine (Homo sapiens, UniProt P78423); experiment: Micro-array analysis of chemokine binding peptides: Fractalkine
T2 construct: purchased 300-31
T2 sequence (P78423 25-100 limits assumed): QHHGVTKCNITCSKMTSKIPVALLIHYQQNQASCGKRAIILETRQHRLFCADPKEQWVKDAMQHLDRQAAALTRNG
Outline: as §12

[4] = molecular target: T3, I-309 (Homo sapiens, UniProt P22362); experiment: Micro-array analysis of chemokine binding peptides: I-309; conditions: limit = start of the upper 75% of that peptide's response range
T3 construct: purchased 300-37
T3 sequence (P22362 24-96): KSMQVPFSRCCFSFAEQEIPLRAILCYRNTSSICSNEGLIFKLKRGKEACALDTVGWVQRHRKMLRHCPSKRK
Outline: as §12

[5] = tested on: IL-8; experiment: Micro-array analysis of chemokine binding peptides: IL-8; conditions: limit = start of the upper 75% of that peptide's response range
Outline: as §12

[6] = molecular target: T4, Exodus-2 (Homo sapiens, UniProt O00585); experiment: Micro-array analysis of chemokine binding peptides: Exodus-2
T4 construct: purchased 300-35
T4 sequence (O00585 24-134): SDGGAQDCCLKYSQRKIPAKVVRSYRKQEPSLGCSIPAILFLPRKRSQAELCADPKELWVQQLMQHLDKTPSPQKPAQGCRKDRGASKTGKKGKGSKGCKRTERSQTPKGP
Outline: as §12

[7] = molecular target: T5, Mig (Homo sapiens, UniProt Q07325); experiment: Micro-array analysis of chemokine binding peptides: Mig; conditions: limit = start of the upper 75% of that peptide's response range
T5 construct: purchased 300-26
T5 sequence (Q07325 23-125): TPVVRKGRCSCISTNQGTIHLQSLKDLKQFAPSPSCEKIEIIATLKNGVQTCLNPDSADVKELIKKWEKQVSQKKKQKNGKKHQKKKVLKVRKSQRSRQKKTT
Outline: as §12

[8] = molecular target: T6, MCP-1 (Homo sapiens, UniProt P13500); experiment: Micro-array analysis of chemokine binding peptides: MCP-1; conditions: limit = start of the upper 75% of that peptide's response range
T6 construct: purchased 300-04
Protocol: as §1, §2, §3, §4, §5, §6, §7, §8, §9, §10, §11

[9] = molecular target: T7, TECK (Homo sapiens, UniProt O15444); experiment: Micro-array analysis of chemokine binding peptides: TECK
T7 construct: purchased 300-45
T7 sequence (O15444 24-150): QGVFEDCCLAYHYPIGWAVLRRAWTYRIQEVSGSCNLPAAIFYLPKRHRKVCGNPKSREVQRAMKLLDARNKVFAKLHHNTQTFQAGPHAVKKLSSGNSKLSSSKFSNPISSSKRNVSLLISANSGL
Outline: as §12

[10] = molecular target: T8, MCP-4 (Homo sapiens, UniProt Q99616); experiment: Micro-array analysis of chemokine binding peptides: MCP-4; conditions: limit = start of the upper 75% of that peptide's response range
T8 construct: purchased 300-24
Outline: as §12

[11] = molecular target: T9, MIP3-α (Homo sapiens, UniProt P78556); experiment: Micro-array analysis of chemokine binding peptides: MIP3-α
T9 construct: purchased 300-29A
Protocol: as §1, with “use. […]” for “use.”
as §11

[12] = molecular target: T10, RANTES (Homo sapiens, UniProt P13501); experiment: Micro-array analysis of chemokine binding peptides: RANTES
T10 construct: purchased 300-06
T10 sequence (P13501 24-91): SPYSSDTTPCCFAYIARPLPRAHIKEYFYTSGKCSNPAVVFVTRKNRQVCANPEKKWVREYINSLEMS
Outline: as §12

[13] = molecular target: T11, Eotaxin (Homo sapiens, UniProt P51671); experiment: Micro-array analysis of chemokine binding peptides: Eotaxin; conditions: limit = start of the upper 75% of that peptide's response range
T11 construct: purchased 300-21
Outline: as §12

[14] = molecular target: T12, SDF1-α (Homo sapiens, UniProt P48061); experiment: Micro-array analysis of chemokine binding peptides: SDF1-α
T12 construct: purchased 300-28a
Protocol: as §1, §2, §3, §4, §5, §6, §7, §8, §9, §10, §11

[15] = molecular target: T13, Eotaxin 3 (Homo sapiens, UniProt Q9Y258); experiment: Micro-array analysis of chemokine binding peptides: Eotaxin 3; conditions: limit = start of the upper 75% of that peptide's response range
T13 construct: purchased 300-48
T13 sequence (Q9Y258 24-94): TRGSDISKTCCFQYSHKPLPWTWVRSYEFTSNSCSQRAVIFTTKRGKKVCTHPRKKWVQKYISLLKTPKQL
Outline: as §12

[16] = tested on: healthy, non-disease-induced rats; experiment: Effect on healthy, non-disease-induced rats; format: in vivo, rat; conditions: 30 ug/injection IP on 12 consecutive days
Protocol: P15 was injected IP (30 ug/injection) on 12 consecutive days to determine if this anti-inflammatory peptide had any effect at a therapeutic dose on healthy, non-disease-induced rats.

T6 sequence (P13500 24-99): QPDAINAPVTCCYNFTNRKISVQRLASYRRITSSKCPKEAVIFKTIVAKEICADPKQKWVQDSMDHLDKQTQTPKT
T1 sequence (P48061 22-93): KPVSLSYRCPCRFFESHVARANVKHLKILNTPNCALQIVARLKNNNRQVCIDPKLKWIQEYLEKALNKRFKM
T12 sequence (P48061 22-89 limits assumed): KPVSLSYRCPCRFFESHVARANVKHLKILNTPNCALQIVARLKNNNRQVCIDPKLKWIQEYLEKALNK
Sequence of SDF1 (P48061 22-89 limits assumed): as above
T9 sequence (P78556 27-96): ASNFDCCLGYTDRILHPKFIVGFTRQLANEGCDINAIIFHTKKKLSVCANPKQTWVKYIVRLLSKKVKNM
T8 sequence (Q99616 17-98): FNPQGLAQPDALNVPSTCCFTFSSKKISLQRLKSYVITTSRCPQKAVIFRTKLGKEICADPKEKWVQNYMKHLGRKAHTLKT
T11 sequence (P51671 24-97): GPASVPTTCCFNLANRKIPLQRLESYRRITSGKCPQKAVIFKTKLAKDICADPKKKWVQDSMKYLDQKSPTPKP
Sequence of IL-8 (P10145 28-99 limits assumed): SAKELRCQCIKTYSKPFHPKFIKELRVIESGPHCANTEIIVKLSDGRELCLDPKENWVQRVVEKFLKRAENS

Substance	binding to SDF1 (isoform not given), stated in words [1]	binding to SDF1-β, stated in words [2]	binding to Fractalkine, stated in words [3]	binding to Fractalkine, stated in words ([3]; listed as P5)	binding to I-309 with relatively high affinity (Relative Fluorescence Units) [4]	binding to IL-8 with relatively high affinity (Relative Fluorescence Units) [5]	binding to Exodus-2, stated in words [6]	binding to Mig with relatively high affinity (Relative Fluorescence Units) [7]	binding to MCP-1 with relatively high affinity (Relative Fluorescence Units) [8]	binding to TECK, stated in words [9]	binding to MCP-4 with relatively high affinity (Relative Fluorescence Units) [10]	binding to MIP3-α, stated in words [11]	binding to RANTES, stated in words [12]	binding to RANTES with relatively high affinity (Relative Fluorescence Units) ([12]; limit = start of the upper 75% of that peptide's response range)	binding to Eotaxin with relatively high affinity (Relative Fluorescence Units) [13]	binding to SDF1-α, stated in words [14]	binding to Eotaxin 3 with relatively high affinity (Relative Fluorescence Units) [15]	physiological or behavioral effect on healthy rats [16]
LFGNDCE [CBP5]	bound specifically and differentially	bound	bound	bound specifically and differentially	> 2,500 RFU	> 2,500 RFU	bound	> 2,500 RFU	> 2,500 RFU	bound	> 2,500 RFU	bound	bound specifically and differentially	> 2,500 RFU	> 2,500 RFU	bound	> 2,500 RFU	
WVFGSGLCK [Ph-p15, WVFGSGLCK]																		no apparent effect; also recorded: no obvious physiological or behavioral effect
